According to patent publication US20220168440A1, “ANTIBODY-PYRROLOBENZODIAZEPINE DEPRIVATIVE CONJUGATE” (DAIICHI SANKYO COMPANY, LIMITED, priority 2019, published 2022):
Substitutions are numbered along the chain they refer to.

Key:
[1] = test system: KPL-4 cells; assay: Cell growth inhibition of drug 1 (4), CellTiter-Glo; format: cell-based; conditions: KPL4, 144 h; human breast cancer cell line; 6 days culture; read-out: anticellular effect IC50 on KPL-4 cells
Protocol: KPL-4 cells (Dr. Junichi Kurebayashi, Kawasaki Medical School, British Journal of Cancer, (1999) 79(5/6). 707-717), a human breast cancer cell line, were prepared with RPMI1640 Medium (Thermo Fisher Scientific; hereinafter, referred to as RPMI medium) containing 10% fetal bovine serum (Hyclone) to reach 6.25×10^3 cells/mL, and 80 μL portions of them were added to a 96-well cell culture microplate. After addition of the cells, the cells were cultured at 37° C. and 5% CO2 overnight.
On the next day, 20 μL portions of drug 1 diluted with RPMI medium to 100 nM, 20 nM, 4 nM, 0.8 nM, 0.16 nM, 0.032 nM, 6.4 pM, 1.3 pM, and 0.26 pM were added to the microplate. To each well without any antibody-drug conjugate, 20 μL of RPMI medium was added. KPL-4 was cultured at 37° C. and 5% CO2 for 6 days. After culturing, the microplate was taken out of the incubator, and left to stand at room temperature for 30 minutes. CellTiter-Glo Luminescent Cell Viability Assay (Promega Corporation) in an amount equivalent to that of the culture solution was added, and stirred using a plate mixer. The microplate was left to stand at room temperature for 10 minutes, and thereafter the amount of emission was measured by using a plate reader (PerkinElmer). Cell survival rates were calculated by using the same formula as in Example 37.

[2] = target: T1, human CLDN6 (human, UniProt P56747 1-220); assay: immunoprecipitation from NTERA-2 cell lysate, SDS-PAGE, mass spectrometry of the 18 kDa band
T1 construct: Four-transmembrane protein, NP_067018; It was also expressed on CHO-K1 cells by cDNA transfection; In the immunoprecipitation it was the endogenous protein from NTERA-2 cell lysate; also called hCLDN6; claudin-6
T1 sequence: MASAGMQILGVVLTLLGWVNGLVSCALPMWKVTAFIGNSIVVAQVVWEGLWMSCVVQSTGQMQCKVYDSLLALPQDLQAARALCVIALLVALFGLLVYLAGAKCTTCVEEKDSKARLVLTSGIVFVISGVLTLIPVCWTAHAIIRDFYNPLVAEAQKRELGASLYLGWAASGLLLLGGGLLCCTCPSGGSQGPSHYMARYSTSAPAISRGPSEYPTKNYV

[3] = target: T2, human CLDN4 (human, UniProt O14493 1-209); assay: flow cytometry on transiently transfected 293T cells
T2 construct: whole, on cells
T2 sequence (looked up): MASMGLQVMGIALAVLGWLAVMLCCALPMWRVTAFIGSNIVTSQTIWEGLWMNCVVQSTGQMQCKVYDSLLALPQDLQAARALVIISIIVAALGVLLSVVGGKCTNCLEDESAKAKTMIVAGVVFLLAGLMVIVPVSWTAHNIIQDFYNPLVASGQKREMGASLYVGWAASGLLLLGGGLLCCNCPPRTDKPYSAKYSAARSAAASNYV
Protocol: (§1) Binding activity of the mouse anti-CLDN6 antibodies produced in Example 6 to human CLDN6 and its family molecules, CLDN3, CLDN4, and CLDN9, was evaluated by using a flow cytometry method. Human CLDN3/pCMV6-Entry, human CLDN4/pCMV6-Entry, human CLDN6/pCMV-Entry, human CLDN9/pCMV6-Entry, or pCMV6-Entry purchased from OriGene Technologies, Inc. was transiently transferred into 293T cells (Thermo Fisher Scientific, HCL4517) by using Lipofectamine 2000 (Thermo Fisher Scientific), and the cells were cultured under conditions of 37° C. and 5% CO₂ overnight, and then a cell suspension was prepared. […] The cells were washed twice with Dulbecco's phosphate buffered saline (Sigma-Aldrich Co. LLC) containing 5% fetal bovine serum (Hyclone) (hereinafter, referred to as 5% FBS-containing PBS), and FLUORESCEIN-CONJUGATED GOAT IGG FRACTION TO MOUSE IGG (WHOLE MOLECULE) (MP Biomedicals, Inc.) 500-fold diluted with 5% FBS-containing PBS was then added thereto, and the cells were suspended and left to stand at 4° C. for 1 hour. After washing twice with 5% FBS-containing PBS, detection was carried out by using a flow cytometer (FC500; Beckman Coulter, Inc.). Data analysis was carried out by using FlowJo (Tree Star, Inc.). […] In each graph in FIG. 40, the ordinate represents FITC fluorescence intensity indicating the amount of the binding antibody and the abscissa represents antibody concentrations.
(§2) The binding activity of the humanized anti-CLDN6 antibody produced in Example 10 to human CLDN6 and its family molecules, CLDN3, CLDN4, and CLDN9, was evaluated by using a flow cytometry method.

[4] = target: T3, human CLDN9 (human, UniProt O95484 1-217); assay: as above
T3 construct: NP_066192; It was expressed on 293T cells transiently transfected with human CLDN9/pCMV6-Entry (OriGene); also called claudin-9
T3 sequence: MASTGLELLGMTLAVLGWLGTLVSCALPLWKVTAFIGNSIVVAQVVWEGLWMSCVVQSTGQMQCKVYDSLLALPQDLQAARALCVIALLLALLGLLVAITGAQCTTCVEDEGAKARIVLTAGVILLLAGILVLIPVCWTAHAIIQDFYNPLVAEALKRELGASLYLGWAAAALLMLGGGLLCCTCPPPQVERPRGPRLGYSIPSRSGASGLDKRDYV
Protocol: as §1, §2

[5] = target: T4, human CLDN3 (human, UniProt O15551 1-220); assay: as above
T4 construct: whole, on cells
T4 sequence (looked up): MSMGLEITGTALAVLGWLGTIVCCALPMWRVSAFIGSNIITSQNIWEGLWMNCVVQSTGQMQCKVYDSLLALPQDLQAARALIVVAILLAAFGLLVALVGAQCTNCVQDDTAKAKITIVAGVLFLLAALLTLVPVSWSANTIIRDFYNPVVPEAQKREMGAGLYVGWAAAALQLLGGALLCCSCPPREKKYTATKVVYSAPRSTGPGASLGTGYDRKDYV
Protocol: as §1, §2

[6] = target: T5, human claudin-6 (Homo sapiens, UniProt P56747); assay: FACS analysis of 218B1/218C7 antibodies on human claudin-6-expressing CHO-K1 cells; format: binding; conditions: forced expression by cDNA transfection
T5 construct: expressed in transfected cells; host or cells: CHO-K1 cells
T5 sequence (P56747 1-220): T1 sequence
Protocol: Since the antigen for the 218B1 antibody and 218C7 antibody was estimated to be claudin-6 from the mass spectrometry, forced expression analysis by cDNA transfection was carried out.

[7] = test system: JEG-3; assay: Internalization activity by Mab-ZAP (saporin-conjugated anti-mouse IgG), cell survival; format: cell-based; conditions: human CLDN6-positive choriocarcinoma cell line JEG-3; antibody 1 nM, Mab-ZAP 0.5 nM; 5 days
Protocol: (§3) Internalization activity of the mouse anti-CLDN6 antibodies B1 and C7 was evaluated by using the anti-mouse IgG reagent, to which a toxin that inhibits protein synthesis (saporin) had been conjugated, Mab-ZAP (Advanced Targeting Systems). In this evaluation, Mab-ZAP is incorporated into cells in a manner depending on the internalization activity of a mouse anti-CLDN6 antibody, and saporin, which inhibits protein synthesis, is released in the cells to suppress cell growth.
(§4) JEG-3(ATCC HTB-36), a human choriocarcinoma cell line of human CLDN6-positive cells, NIH:OVCAR-3 (ATCC HTB-161), a human ovarian cancer cell line of human CLDN6-positive cells, or BxPC-3 (ATCC CRL-1687), a human pancreatic cancer cell line of human CLDN6-negative cells, was seeded in a 96-well cell culture microplate at 2×10^3 cells/well, and cultured under conditions of 37° C. and 5% CO2 overnight. On the next day, a mixed solution obtained by mixing each mouse anti-CLDN6 antibody or mouse IgG1 antibody (R&D Systems, Inc.) to a final concentration of 1 nM, with Mab-ZAP (final concentration: 0.5 nM) or AffiniPure Goat Anti-Mouse IgG, Fcγ Fragment Specific (Jackson ImmunoResearch Laboratories Inc.) (final concentration: 0.5 nM), without conjugated toxin, was added, and the cells were cultured under conditions of 37° C. and 5% CO2 for 5 days. The number of surviving cells was determined through quantification of ATP activity by using CellTiter-Glo Luminescent Cell Viability Assay (Promega Corporation).

[8] = test system: NIH:OVCAR-3; assay: as above; format: cell-based; conditions: human CLDN6-positive ovarian cancer cell line NIH:OVCAR-3; antibody 1 nM, Mab-ZAP 0.5 nM; 5 days
Protocol: as §3, §4

[9] = test system: BxPC-3; assay: as above; format: cell-based; conditions: human CLDN6-negative pancreatic cancer cell line BxPC-3; antibody 1 nM, Mab-ZAP 0.5 nM; 5 days
Protocol: as §3, §4

[10] = target: T1, human CLDN6; assay: FACS on CHO-K1 cells transfected with human claudin-6 cDNA

In the case of `COc1ccc(C2=CN3C(=O)c4cc(OC)c(OCCCCCOc5cc6c(cc5OC)C(=O)N5CC7(CC7)C[C@H]5C=N6)cc4NC[C@@H]3C2)cc1` [Drug 1, (11a′S)-7′-Methoxy-8′-[(5-{[(11aS)-7-methoxy-2-(4-methoxyphenyl)-5-oxo-5,10,11,11a-tetrahydro-1H-pyrrolo[2,1-c][1,4]benzodiazepin-8-yl]oxy}pentyl)oxy]-1′,11a′-dihydro-5′H-spiro[cyclopropane-1,2′-pyrrolo[2,1-c][1,4]benzodiazepine]-5′-one], the IC50 [1] is reported as 0.01 to 0.02 nM.

B1: mouse anti-CLDN6 antibody B1 (antibody, V domains shown)
VH: EVQLQQSGPELVKPGASVKISCKTSGYTFTEYTMHWVQQSHGKSLEWIGGVNPNSGDTSYNQKFKGKATLTVDKSSSTAYMELRSLTSEDSAVYYCARPGGYDVGYYAMDYWGQGTSVTVSS
VL: DIQMTQTASSLSASLGDRVTISCRASQDINNYLNWYQQKPDGTVKLLIYFTSRLHSGVPSRFSGSGSGTHYSLTITNLEQEDIATYFCQQGYPLPWTFGGGTKLEIK
notes: Mouse monoclonal antibody purified from hybridoma 218B1 culture supernatant; a mouse IgG1 antibody was used as the control; also called B1 antibody; 218B1 antibody
B1: binds [2]; no binding (tested: 30 µg/mL (highest concentration tested)) [3]; binds [4]. B1: no binding (tested: 30 µg/mL (highest concentration tested)) [5].

B2: C7: mouse anti-CLDN6 antibody; heavy/light chain variable regions SEQ ID NO: 25 and 23 (antibody, listed as Mus musculus, V domains shown)
VH: B1 VH
VL: B1 VL with F50S, N77H
modifications: amino acid sequence of variable region of C7 antibody heavy chain; amino acid sequence of variable region of C7 antibody light chain
In the case of B2, the “FACS reaction for human claudin-6-expressing CHO-K1 cells” value [6] is reported as “strong positive reaction”, the “cell growth-suppressing effect (relative survival rate) with Mab-ZAP” value [7] is reported as “cell growth-suppressing effect” and the “cell growth-suppressing effect (relative survival rate) with Mab-ZAP” value [8] is reported as “cell growth-suppressing effect”. The “cell growth-suppressing effect (relative survival rate) with Mab-ZAP” value [9] was “no cell growth-suppressing effect”.

B3: mouse anti-CLDN6 antibody C7 (antibody, V domains shown)
VH: B1 VH
VL: B1 VL with F50S, N77H
notes: Mouse monoclonal antibody purified from hybridoma 218C7 culture supernatant; a mouse IgG1 antibody was used as the control; also called C7 antibody; 218C7 antibody
B3: binds [10]; no binding (tested: 30 µg/mL (highest concentration tested)) [3]; binds [4]. B3: no binding (tested: 30 µg/mL (highest concentration tested)) [5].
